Laboratory results from patent US20090220511A1 (RUTGERS THE STATE UNIVERSITY OF NEW JERSEY, published 2009).
Values belong to the molecule of their own block, whether it stands above or below them.

Tests used:
[1] = molecular target: FLAG tagged chimeric IL-10R1/CRF2-12 receptor (IL-10R1 extracellular domain fused to the transmembrane and intracellular domains of CRF2-12) on HT-29 cells (human) (UniProt Q13651); assay: cell-based or functional assay
[2] = molecular target: T1, chimeric human CRF2-12/γR1 chain expressed alone on hamster 16-9 cells (human, UniProt P15260 246-489); assay: crosslinking of 32P-labeled ligand to transfected hamster cells, 7.5% SDS-PAGE
T1 construct: domain: transmembrane and intracellular domains; On the cell surface of hamster 16-9 cells, without human CRF2-4; also called CRF2-12/IFN-γR1; CRF2-12/gR1
T1 sequence: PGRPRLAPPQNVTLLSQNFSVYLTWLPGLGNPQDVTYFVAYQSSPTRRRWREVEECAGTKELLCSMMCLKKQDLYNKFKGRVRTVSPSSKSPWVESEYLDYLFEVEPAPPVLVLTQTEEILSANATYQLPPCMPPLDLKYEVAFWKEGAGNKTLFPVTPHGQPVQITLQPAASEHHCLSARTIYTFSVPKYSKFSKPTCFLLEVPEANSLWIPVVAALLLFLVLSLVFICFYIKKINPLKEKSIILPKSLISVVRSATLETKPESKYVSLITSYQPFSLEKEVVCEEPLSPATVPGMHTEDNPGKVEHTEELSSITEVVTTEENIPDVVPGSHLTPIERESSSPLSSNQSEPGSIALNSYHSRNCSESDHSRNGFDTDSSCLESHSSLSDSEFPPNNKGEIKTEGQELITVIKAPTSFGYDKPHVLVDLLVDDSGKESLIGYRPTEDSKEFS
Method: (§1) Untreated 32P-labeled FL-IFN-λ1-P ([32P]FL-IFN-λ1-P) was loaded as a control (lane 1). ([32P]FL-IFN-λ1-P) was also incubated in DMEM medium with 10% FBS and crosslinking in solution was performed as described (32) (lane 2). The untransfected and transfected hamster cells described in FIG. 22 row 1 were incubated with 32P-labeled FL-IFN-λ1-P with or without addition of a 100-fold excess of unlabeled IFN-λ1 (competitor), washed, harvested and crosslinked. The extracted crosslinked complexes were analyzed on 7.5% SDS-PAGE. The molecular weight markers are shown on the left.
(§2) In another embodiment of the present invention, the interaction between IFN-λ and its receptor was characterized by crosslinking (FIG. 22). Crosslinking experiments were performed with radiolabeled IFN-λ (FIGS. 20B and C) and the IFN-λ receptor chains expressed in hamster cells (FIG. 22). COS cell-expressed FL-IFN-λ1-P was purified to homogeneity and radiolabeled (FIGS. 20B and C). […] FL-IFN-λ1-P was labeled with [32P]ATP and used for crosslinking to cells as described (Li, et al., (1989) Proc Natl Acad Sci USA 86, 558-562; Kotenko, et al., (1995) J Biol Chem 270, 20915-20921; Pestka, et al., (1999) Protein Expr Purif 17, 203-214; Kotenko, et al., (2001) J Immunol 166, 7096-7103). […]

[3] = molecular target: T2, intact human CRF2-4 chain expressed alone on hamster 16-9 cells (human, UniProt Q08334 20-325); assay: as above
T2 construct: whole, on cells; From plasmid pEF-CRF2-4 (pEF-IL-10R2), on hamster 16-9 cells without CRF2-12/γR1; also called IL-10R2
T2 sequence (looked up): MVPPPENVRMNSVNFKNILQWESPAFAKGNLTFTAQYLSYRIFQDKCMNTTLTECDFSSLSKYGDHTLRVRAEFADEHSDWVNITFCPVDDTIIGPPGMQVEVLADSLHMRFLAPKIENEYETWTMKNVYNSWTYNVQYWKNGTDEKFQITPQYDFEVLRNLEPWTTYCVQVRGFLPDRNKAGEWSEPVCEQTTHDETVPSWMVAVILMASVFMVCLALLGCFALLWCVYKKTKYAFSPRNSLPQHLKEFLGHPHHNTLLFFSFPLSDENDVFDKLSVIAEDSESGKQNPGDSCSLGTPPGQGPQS
Method: as §1, §2

[4] = molecular target: the molecule itself; assay: crosslinking of the 32P-labeled ligand to itself in solution, SDS-PAGE
Method: as §1
In another embodiment of the present invention, the interaction between IFN-λ and its receptor was characterized by crosslinking (FIG. 22). Crosslinking experiments were performed with radiolabeled IFN-λ (FIGS. 20B and C) and the IFN-λ receptor chains expressed in hamster cells (FIG. 22). COS cell-expressed FL-IFN-λ1-P was purified to homogeneity and radiolabeled (FIGS. 20B and C). […] FL-IFN-λ1-P was labeled with [32P]ATP and used for crosslinking to cells as described (Li, et al., (1989) Proc Natl Acad Sci USA 86, 558-562; Kotenko, et al., (1995) J Biol Chem 270, 20915-20921; Pestka, et al., (1999) Protein Expr Purif 17, 203-214; Kotenko, et al., (2001) J Immunol 166, 7096-7103).

[5] = molecular target: T1, chimeric human CRF2-12/γR1 chain …; assay: flow cytometry with anti-FLAG antibody on transfected hamster cells
Method: (§3) A. Four cell lines used in these experiments are schematically shown (top panels): the parental Chinese hamster 16-9 cells and cells expressing the human CRF2-12/gR1 chimeric receptor or human IL-10R2 alone or both receptors together. […] The cells were also tested for their ability to bind FL-IFN-λs (panels E, F, G, H and I). The cells were incubated for three hours at 20° C. with conditioned medium from COS-1 cells transfected with one of the following plasmids: the control vector pEF-SPFL (open areas, thick lines); the pEF-FL-IFN-λ1 (FL-IFN-λ1; open areas, thin lines; panels E, F, G and H) or the pEF-FL-IFN-λ2 (FL-IFN-λ2; shaded areas, thin lines; panel I). […] Cells expressing both chains were co-incubated with either FL-IFN-λ1 or FL-IFN-λ2 ([…] of conditioned media from COS cells expressing FL-IFN-λ1/2) and with E. coli produced IFN-λ1 lacking the FLAG epitope (IFN-λ1E. coli, 1 mg/ml) (open areas, thin lines; panels H and I). Ligand binding to the cell surface was determined by flow cytometry with anti-FLAG antibody (Sigma) as the primary antibody and fluorescein isothiocyanate-conjugated goat anti-mouse IgG (Santa Cruz) as the secondary antibody. The ordinate represents relative cell numbers, and the abscissa relative fluorescence (logarithmic scale).

[6] = molecular target: T2, intact human CRF2-4 chain expressed …; assay: as above
Method: as §3

Sequence of FLAG tagged chimeric IL-10R1/CRF2-12 receptor (IL-10R1 extracellular domain fused to the transmembrane and intracellular domains of CRF2-12) on HT-29 cells (human) (Q13651 other isoform, or with tags, fused parts or gaps mutant limits assumed): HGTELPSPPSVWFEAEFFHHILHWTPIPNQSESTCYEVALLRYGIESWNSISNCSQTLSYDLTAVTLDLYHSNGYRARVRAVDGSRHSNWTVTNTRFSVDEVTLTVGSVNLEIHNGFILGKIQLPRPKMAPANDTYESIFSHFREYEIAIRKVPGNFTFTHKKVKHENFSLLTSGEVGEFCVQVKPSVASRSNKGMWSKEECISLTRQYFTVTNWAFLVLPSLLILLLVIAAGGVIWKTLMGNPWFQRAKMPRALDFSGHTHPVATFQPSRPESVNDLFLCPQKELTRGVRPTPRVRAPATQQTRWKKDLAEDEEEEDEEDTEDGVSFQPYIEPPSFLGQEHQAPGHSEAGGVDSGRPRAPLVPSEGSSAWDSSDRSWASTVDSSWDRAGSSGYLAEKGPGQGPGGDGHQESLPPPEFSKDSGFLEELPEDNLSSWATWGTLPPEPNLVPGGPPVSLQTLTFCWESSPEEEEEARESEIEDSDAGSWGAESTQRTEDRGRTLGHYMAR

Molecule: IL-10 (from UniProt P22301 19-178) (ligand)
MHC class I antigen induction and antiviral activity of HT-29 cells expressing FL-IL-10R1/CRF2-12 [1]: 1 ng/mL
apoptosis of HT-29 cells expressing FL-IL-10R1/CRF2-12 [1]: > 10 ng/mL

binding result [2]: no binding
binding result [3]: no binding
B1: 32P-labeled FL-IFN-λ1-P (ligand, not shown: small tags and cut ends)
chain: PTSKPTPTGKGCHIGRFKSLSPQELASFKKARDALEESLKLKNWSCSSPVFPGNWDLRLLQVRERPVALEAELALTLKVLEAAAGPALEDVLDQPLHTLHHILSQLQACIQPQPTAGPRPRGRLHHWLHRLQEAPKKESAGCLEASVTFNLFRLLTRDLKYVADGNLCLRTSTHPESTRRASVA
modifications: labeled with [32P]ATP on the C-terminal Arg-Arg-Ala-Ser-Val-Ala tag (consensus site of the cAMP-dependent protein kinase)
notes: Expressed in COS cells, purified on anti-FLAG M1 gel and radiolabeled; Primer ifnl-7R may encode extra junction residues before the RRASVA tag; also called [32P]FL-IFN-λ1-P; radiolabeled IFN-λ
binding result [4]: no binding

binding result [5]: no binding
binding result [6]: no binding
B2: FL-IFN-λ1 (IFN-λ1 tagged at its N-terminus with the FLAG epitope) (ligand, not shown: small tags and cut ends)
chain: PTSKPTPTGKGCHIGRFKSLSPQELASFKKARDALEESLKLKNWSCSSPVFPGNWDLRLLQVRERPVALEAELALTLKVLEAAAGPALEDVLDQPLHTLHHILSQLQACIQPQPTAGPRPRGRLHHWLHRLQEAPKKESAGCLEASVTFNLFRLLTRDLKYVADGNLCLRTSTHPEST
notes: Used as conditioned medium of transiently transfected COS-1 cells; also called FL-IFN-λ1gene product
